In publication PMC6712498:

Biological target: Gaussia princeps luciferase (Gluc)-LiDps fusion protein (Gaussia princeps | Listeria innocua)
Test: native gel or EMSA + other: TEM; purified refolded Gluc-LiDps; native gel with HuAFn and LiDps as molecular weight markers, and morphological characterization by TEM

stoichiometry N: 12 subunits
Substance: Gaussia princeps luciferase (Gluc)-LiDps fusion protein
